What was measured:
[1] = biological target: cynomolgus monkey FcRn (cynomolgus monkey) (UniProt Q8SPV9); assay: SPR (BIAcore 3000), IgG immobilised on CM5, FcRn injected; binding at pH 7.4 as a percentage of that at pH 6
[2] = biological target: human FcRn protein (human) (UniProt P55899); assay: as above
[3] = biological target: cynomolgus monkey FcRn (cynomolgus monkey) (UniProt Q8SPV9); assay: SPR (BIAcore 3000), IgG immobilised on CM5, FcRn injected at pH 6, steady-state 1:1 fit
[4] = biological target: human FcRn protein (human) (UniProt P55899); assay: as above

Sequence of cynomolgus monkey FcRn (cynomolgus monkey) (Q8SPV9 24-290 limits assumed, chain 1 of 2): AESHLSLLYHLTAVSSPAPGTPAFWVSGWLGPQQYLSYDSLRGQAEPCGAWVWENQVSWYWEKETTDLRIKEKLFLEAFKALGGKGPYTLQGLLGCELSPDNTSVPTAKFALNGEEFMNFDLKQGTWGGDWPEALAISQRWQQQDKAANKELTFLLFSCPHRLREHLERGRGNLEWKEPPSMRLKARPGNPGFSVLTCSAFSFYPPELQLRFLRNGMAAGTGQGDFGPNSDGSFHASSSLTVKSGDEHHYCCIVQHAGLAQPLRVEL
Sequence of cynomolgus monkey FcRn (cynomolgus monkey) (Q8SPW0 21-119 limits assumed, chain 2 of 2, further chain): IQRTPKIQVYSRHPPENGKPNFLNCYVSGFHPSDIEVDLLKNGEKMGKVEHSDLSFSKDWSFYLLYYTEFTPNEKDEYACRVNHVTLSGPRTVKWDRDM

pH7.4/pH6 [1]: 1%
pH7.4/pH6 [2]: 1%
Kd [3]: 1860 nM
Kd [4]: 2040 nM
Substance: NIP228 (antibody)

Source: US20160272706A1
